{
  "source": "paper PMC5113752",
  "about": "(Protein expression and purification, 2015)",
  "molecular_target": "the molecule itself",
  "assay": "cross-linking",
  "data": [
    {"protein": "p7 viroporin from hepatitis C virus strain H77 genotype 1a, in proteoliposomes (natural protein, hepatitis C virus genotype 1a strain H77, UniProt P27958 747-809, looked up) ALENLVILNAASLAGTHGLVSFLVFFCFAWYLKGRWVPGAVYALYGMWPLLLLLLALPQRAYA", "values": [
      {"measurement": "stoichiometry N", "value": 6}
    ]}
  ]
}
